We go through 2 molecules from paper PMC6609460 (Nature structural & molecular biology, 2019).

The labels stand for the following.
B1: PTAR1 in the crystallised GGTase3-FBXL2-SKP1 complex (natural protein)
chain: MAETSEEVAVLVQRVVKDITNAFRRNPHIDEIGLIPCPEARYNRSPIVLVENKLGVESWCVKFLLPYVHNKLLLYRTRKQWLNRDELIDVTCTLLLLNPDFTTAWNVRKELILSGTLNPIKDLHLGKLALTKFPKSPETWIHRRWVLQQLIQETSLPSFVTKGNLGTIPTERAQRLIQEEMEVCGEAAGRYPSNYNAWSHRIWVLQHLAKLDVKILLDELSSTKHWASMHVSDHSGFHYRQFLLKSLISQTVIDSSVMEQNPLRSEPALVPPKDEEAAVSTEEPRINLPHLLEEEVEFSTDLIDSYPGHETLWCHRRHIFYLQHHLNAGSQLSQAMEVDGLNDSSKQGYSQETKRLKRTPVPDSLGLEMEHRFIDQVLSTCRNVEQARFASAYRKWLVTLSQ

The target of experiment [1] is T1, FBXL2 in the crystallised GGTase3-FBXL2-SKP1 complex (human, UniProt Q9UKC9 1-423).
T1 sequence: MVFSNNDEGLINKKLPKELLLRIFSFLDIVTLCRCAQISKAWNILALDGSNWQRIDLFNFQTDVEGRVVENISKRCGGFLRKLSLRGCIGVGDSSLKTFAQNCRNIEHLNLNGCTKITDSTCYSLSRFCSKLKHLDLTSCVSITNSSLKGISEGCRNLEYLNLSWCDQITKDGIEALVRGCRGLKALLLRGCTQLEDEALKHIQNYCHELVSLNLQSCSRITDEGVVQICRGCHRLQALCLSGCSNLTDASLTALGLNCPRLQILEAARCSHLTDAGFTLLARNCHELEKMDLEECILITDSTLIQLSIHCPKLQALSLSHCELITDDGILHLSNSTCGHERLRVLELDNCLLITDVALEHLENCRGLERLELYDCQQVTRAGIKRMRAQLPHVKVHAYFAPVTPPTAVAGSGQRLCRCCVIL
Put plainly: crystal structure.

For experiment [2], the target named is B1. The experiment is described as follows: crystal structure.

B1: in experiment [1], the binding result is given as “binds”.

B2: RabGGTB in the crystallised GGTase3-FBXL2-SKP1 complex (natural protein)
chain: MGTPQKDVIIKSDAPDTLLLEKHADYIASYGSKKDDYEYCMSEYLRMSGIYWGLTVMDLMGQLHRMNREEILAFIKSCQHECGGISASIGHDPHLLYTLSAVQILTLYDSINVIDVNKVVEYVKGLQKEDGSFAGDIWGEIDTRFSFCAVATLALLGKLDAINVEKAIEFVLSCMNFDGGFGCRPGSESHAGQIYCCTGFLAITSQLHQVNSDLLGWWLCERQLPSGGLNGRPEKLPDVCYSWWVLASLKIIGRLHWIDREKLRNFILACQDEETGGFADRPGDMVDPFHTLFGIAGLSLLGEEQIKPVNPVFCMPEEVLQRVNVQPELVS
Regarding B2, the binding result in experiment [2] is recorded as “binds”.
